Laboratory results as given in the supplement of paper PMC9170038.

test system: MS2 coat protein; assay: apparent KD of MS2 coat protein; higher = weaker reporter binding; conditions: Eterna round: R107; input ligand: arginine 13.2 mM
Experimental: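 RNA-MaP round R107: designed RNA switches with theophylline, tryptophan, arginine or FMN aptamers are transcribed on-chip within common flanks. They are titrated with SNAP-549-labelled MS2 coat protein in RNA-MaP buffer (100 mM Tris pH 7.5, 80 mM KCl, 4 mM MgCl2), without ligand or with the indicated ligand. Median apparent KD per design.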

Sequence | apparent KD of MS2 coat protein [µM]
AGGCUUCGCAUAGGAAAACUAUGUGAAGCCCGAGGACCGGUACGGCCGCCACUCGUCCUCAACAUGAGGAUCACCCAUGUAAUAA [Mat - Exclusion - Trytophan A - D1] | 0.0245
AUUCAUGAAAACAUGACAUGAGGAUCACUCCGAGGACCGGUACGGCCGCCACUCGCGAGGAGGCACAUGAGGAUCACCCAUGUUA [SS Tryp A #2] | 0.036
GAUGAACUAUUUGAUACCAGACUACAUGAGGAUCACCCAUGUGCGCGUCGUCCUCUGCCAGUCCCUUGGCAGCAAAUAGUUUAUC [XTheo B #9] | 0.0698
GUCGGUACGUCGGCAAAGCCGAUGUGCCAGCGAGGACCGGUACGGCCGCCACUCGUACAUGAGGAUCACCCAUGUCCGGUCCGGC [Omei Trp SS A C v2] | 0.0325
UCACAUGAGGAUCACCCAUGUCCAGGUGAAGGAGCGAUUAGGGAGUCAGGUAGGUCGCACCACAUGAGGAUCACCCAUGUGCCUG [EAA NP+V+V2 #8 DOUBLE] | 0.0184
CUAUAUGGAAACAUAUAGAAGCGAAAGCAGCGAGGACCGGUACGGCCGCCACUCGCAGAGUGGUGGACAUGAGGAUCACCCAUGU [Design 2] | 0.0438
AGAUUACAUGUUAUAAUACGGUAUACUGAUACCAGUGUUUCUAUUCACCCUUGGCAGCAGCAACAUGAGGAUCACCCAUGUAUUA [JR_SSTheophyA_Sub017] | 0.0149
UCGUGUCUAUUGGUUUAGCUUUAAUCGUUACGAGGACCGGUACGGCCGCCACUCGAUUUAACAUGAGGAUCACCCAUGUACUCUC [JR_ExcTryptoA_Sub012] | 0.0175
ACAUGAGGAUCACCCAUGUGAGAUAGGGAAGGAGCGCAGGAGGAUGCAGGUAGGUCGCCCACAUGAGGAUCACCCGUGUCUGGAG [#11 Exclusion - Arginine A] | 0.0332
AUCUUUGAUGAUCUGGGAAAACCAGAUCGGCGAGGACCGGUACGGCCGCCACUCGUGUAUAAUAUACAUGAGGAUCACCCAUGUA [#20 Tryptophan A Same State] | 0.05
UCGCUCUGGGUGAGAUCCGGAGAUAUGGAAGGAGCGCUGAUGCCAGCAGGUAGGUCGCCAACGGACAUGAGGAUCACCCAUGUAC [Same State - Arginine A (Freestyle 10)] | 0.025
AAAUAAAUACAUGAGGAUCACCCAUGUGAAGGAGCGGCCGUUAGGCCAGGUAGGUCGCGCAUGAAUAACUCCGUGCAUAAGCACA [MAT - Exclusion Arginine A - Mod of Eli - D18] | 0.0106
CACAUGAGGAUCACCCAUGUGUAAUAUGAAGGAGCGUCGGAAAUGACAGGUAGGUCGCAUGAAAUGCAAGUGUGUGAGGUUGUGA [EAA NP+V+V2 #12] | 0.00917
GAUGAACUAUAUGAUACCAGACAACAUGAGGAUCACCCAUGUGAAUGUCGUCCUCUGCCUGUCCCUUGGCAGCGUAUAGUUUAUC [XTheo B #15] | 0.0293
UAGUUAGCGGCGGCCGCCACUCGAGAUAUAACAUGAUAUCAUAACAUGAGGAUCACCCAUGUCACGAGGACCGGGCCGAUCUUCA [Same State Typptophan B GF6] | 0.0279
UAUAUAUAUAUGGAUACCAGCAGAGAAAACGUUUAUCCUAACAUGAGGAUCACCCAUGUAUGCCCUUGGCAGCUGUAUAUAUAUA [8.G] | 0.0214

same assay, conditions: Eterna round: R107; input ligand: none

Sequence | apparent KD of MS2 coat protein [µM]
AGGCUUCGCAUAGGAAAACUAUGUGAAGCCCGAGGACCGGUACGGCCGCCACUCGUCCUCAACAUGAGGAUCACCCAUGUAAUAA [Mat - Exclusion - Trytophan A - D1] | 0.0154
UCACAUGAGGAUCACCCAUGUCCAGGUGAAGGAGCGAUUAGGGAGUCAGGUAGGUCGCACCACAUGAGGAUCACCCAUGUGCCUG [EAA NP+V+V2 #8 DOUBLE] | 0.0228
CUAUAUGGAAACAUAUAGAAGCGAAAGCAGCGAGGACCGGUACGGCCGCCACUCGCAGAGUGGUGGACAUGAGGAUCACCCAUGU [Design 2] | 0.0832
ACAUGAGGAUCACCCAUGUGAGAUAGGGAAGGAGCGCAGGAGGAUGCAGGUAGGUCGCCCACAUGAGGAUCACCCGUGUCUGGAG [#11 Exclusion - Arginine A] | 0.0434
AUCUUUGAUGAUCUGGGAAAACCAGAUCGGCGAGGACCGGUACGGCCGCCACUCGUGUAUAAUAUACAUGAGGAUCACCCAUGUA [#20 Tryptophan A Same State] | 0.0554
UCGCUCUGGGUGAGAUCCGGAGAUAUGGAAGGAGCGCUGAUGCCAGCAGGUAGGUCGCCAACGGACAUGAGGAUCACCCAUGUAC [Same State - Arginine A (Freestyle 10)] | 0.0524
AAAUAAAUACAUGAGGAUCACCCAUGUGAAGGAGCGGCCGUUAGGCCAGGUAGGUCGCGCAUGAAUAACUCCGUGCAUAAGCACA [MAT - Exclusion Arginine A - Mod of Eli - D18] | 0.0111
CACAUGAGGAUCACCCAUGUGUAAUAUGAAGGAGCGUCGGAAAUGACAGGUAGGUCGCAUGAAAUGCAAGUGUGUGAGGUUGUGA [EAA NP+V+V2 #12] | 0.01
UAGUUAGCGGCGGCCGCCACUCGAGAUAUAACAUGAUAUCAUAACAUGAGGAUCACCCAUGUCACGAGGACCGGGCCGAUCUUCA [Same State Typptophan B GF6] | 0.0485

same assay, conditions: Eterna round: R107; input ligand: theophylline 20 uM

Sequence | apparent KD of MS2 coat protein [µM]
AGGCUUCGCAUAGGAAAACUAUGUGAAGCCCGAGGACCGGUACGGCCGCCACUCGUCCUCAACAUGAGGAUCACCCAUGUAAUAA [Mat - Exclusion - Trytophan A - D1] | 0.0416
AUUCAUGAAAACAUGACAUGAGGAUCACUCCGAGGACCGGUACGGCCGCCACUCGCGAGGAGGCACAUGAGGAUCACCCAUGUUA [SS Tryp A #2] | 0.119
GAUGAACUAUUUGAUACCAGACUACAUGAGGAUCACCCAUGUGCGCGUCGUCCUCUGCCAGUCCCUUGGCAGCAAAUAGUUUAUC [XTheo B #9] | 0.14
GUCGGUACGUCGGCAAAGCCGAUGUGCCAGCGAGGACCGGUACGGCCGCCACUCGUACAUGAGGAUCACCCAUGUCCGGUCCGGC [Omei Trp SS A C v2] | 0.0844
UCACAUGAGGAUCACCCAUGUCCAGGUGAAGGAGCGAUUAGGGAGUCAGGUAGGUCGCACCACAUGAGGAUCACCCAUGUGCCUG [EAA NP+V+V2 #8 DOUBLE] | 0.0275
CUAUAUGGAAACAUAUAGAAGCGAAAGCAGCGAGGACCGGUACGGCCGCCACUCGCAGAGUGGUGGACAUGAGGAUCACCCAUGU [Design 2] | 0.111
AGAUUACAUGUUAUAAUACGGUAUACUGAUACCAGUGUUUCUAUUCACCCUUGGCAGCAGCAACAUGAGGAUCACCCAUGUAUUA [JR_SSTheophyA_Sub017] | 0.0214
UCGUGUCUAUUGGUUUAGCUUUAAUCGUUACGAGGACCGGUACGGCCGCCACUCGAUUUAACAUGAGGAUCACCCAUGUACUCUC [JR_ExcTryptoA_Sub012] | 0.0266
